The assay addresses natriuretic peptide receptor-B (NPR-B) on human aortic endothelial cells (human) (UniProt P20594). The experiment in a line: cell-based or functional assay.

For 1 substance, cGMP in HAEC with 10^-6 M CNP in the presence of the NPR-B antibody (1:100) and cGMP in HAEC with 10^-6 M CNP, no antibody results are on record in patent publication US20090054337A1.

Sequence of UniProt P20594 (P20594 23-1047): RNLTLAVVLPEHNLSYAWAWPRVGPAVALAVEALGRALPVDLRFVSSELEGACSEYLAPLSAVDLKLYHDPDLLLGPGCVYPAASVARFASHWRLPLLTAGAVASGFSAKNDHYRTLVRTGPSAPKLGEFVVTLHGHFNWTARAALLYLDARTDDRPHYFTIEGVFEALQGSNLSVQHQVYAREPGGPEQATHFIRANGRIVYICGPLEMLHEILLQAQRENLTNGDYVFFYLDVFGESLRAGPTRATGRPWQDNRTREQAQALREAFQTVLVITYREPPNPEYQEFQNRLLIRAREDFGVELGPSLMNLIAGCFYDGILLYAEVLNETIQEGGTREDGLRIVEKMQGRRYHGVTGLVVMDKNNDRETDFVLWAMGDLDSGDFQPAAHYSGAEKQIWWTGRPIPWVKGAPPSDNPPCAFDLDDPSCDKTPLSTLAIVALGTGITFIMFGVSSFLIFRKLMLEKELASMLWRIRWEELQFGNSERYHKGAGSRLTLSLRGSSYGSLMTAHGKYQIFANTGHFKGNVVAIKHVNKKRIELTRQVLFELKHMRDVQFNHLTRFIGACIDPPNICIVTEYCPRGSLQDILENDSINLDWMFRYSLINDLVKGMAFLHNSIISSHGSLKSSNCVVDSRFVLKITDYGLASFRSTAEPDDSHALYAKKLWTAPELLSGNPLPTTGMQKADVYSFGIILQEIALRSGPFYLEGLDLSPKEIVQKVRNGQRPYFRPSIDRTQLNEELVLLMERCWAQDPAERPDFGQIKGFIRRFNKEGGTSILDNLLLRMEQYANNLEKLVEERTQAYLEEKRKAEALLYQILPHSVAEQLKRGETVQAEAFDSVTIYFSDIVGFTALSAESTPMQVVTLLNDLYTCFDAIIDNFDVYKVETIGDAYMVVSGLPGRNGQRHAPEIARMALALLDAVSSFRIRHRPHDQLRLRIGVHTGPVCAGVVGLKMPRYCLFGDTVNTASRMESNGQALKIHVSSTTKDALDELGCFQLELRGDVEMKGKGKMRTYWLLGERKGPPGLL

As to “human CNP (from UniProt P23582 74-126) (peptide)”, the cGMP in HAEC with 10^-6 M CNP in the presence of the NPR-B antibody (1:100) was found to be 0.08 pmol/mL and the cGMP in HAEC with 10^-6 M CNP, no antibody worked out at 0.17 pmol/mL.
